# Experimental data as given in the supplement of paper PMC11246515.
# ± gives the standard deviation of the averaged measurements.
# Assay: total protein half-life in vivo (active degradation + dilution); higher = more stable protein
# [1] = wild type E. coli NCM3722, growth: C-lim chemostat, doubling time 12 h
# [2] = wild type E. coli NCM3722, growth: P-lim chemostat, doubling time 6 h
# [3] = wild type E. coli NCM3722, growth: P-lim chemostat, doubling time 12 h
# [4] = E. coli NCM3722 delta-clpP delta-lon delta-hslV, growth: N-lim chemostat, doubling time 6 h
# [5] = E. coli NCM3722 delta-clpP, growth: N-lim chemostat, doubling time 6 h
# [6] = E. coli NCM3722 delta-hslV, growth: N-lim chemostat, doubling time 6 h
# [7] = E. coli NCM3722 delta-lon, growth: N-lim chemostat, doubling time 6 h
# [8] = E. coli NCM3722 delta-smpB, growth: N-lim chemostat, doubling time 6 h
# [9] = wild type E. coli NCM3722, growth: C-lim chemostat, doubling time 3 h
# [10] = wild type E. coli NCM3722, growth: N-lim chemostat, doubling time 6 h
# [11] = wild type E. coli NCM3722, growth: C-lim chemostat, doubling time 6 h
# [12] = wild type E. coli NCM3722, growth: N-lim chemostat, doubling time 12 h
Sequence,total protein half-life in vivo [1] [h],total protein half-life in vivo [2] [h],total protein half-life in vivo [3] [h],total protein half-life in vivo [4] [h],total protein half-life in vivo [5] [h],total protein half-life in vivo [6] [h],total protein half-life in vivo [7] [h],total protein half-life in vivo [8] [h],total protein half-life in vivo [9] [h],total protein half-life in vivo [10] [h],total protein half-life in vivo [11] [h],total protein half-life in vivo [12] [h]
MQATATTLDHEQEYTPINSRNKVLVASLIGTAIEFFDFYIYATAAVIVFPHIFFPQGDPTAATLQSLATFAIAFVARPIGSAVFGHFGDRVGRKATLVASLLTMGISTVVIGLLPGYATIGIFAPLLLALARFGQGLGLGGEWGGAALLATENAPPRKRALYGSFPQLGAPIGFFFANGTFLLLSWLLTDEQFMSWGWRVPFIFSAVLVIIGLYVRVSLHESPVFEKVAKAKKQVKIPLGTLLTKHVRVTVLGTFIMLATYTLFYIMTVYSMTFSTAAAPVGLGLPRNEVLWMLMMAVIGFGVMVPVAGLLADAFGRRKSMVIITTLIILFALFAFNPLLGSGNPILVFAFLLLGLSLMGLTFGPMGALLPELFPTEVRYTGASFSYNVASILGASVAPYIAAWLQTNYGLGAVGLYLAAMAGLTLIALLLTHETRHQSL,2.58 ± 0.1,2.33 ± 0.58,2.89 ± 1.6,,,,,,,,,
MQEIMQFVGRHPILSIAWIALLVAVLVTTFKSLTSKVKVITRGEATRLINKEDAVVVDLRQRDDFRKGHIAGSINLLPSEIKANNVGELEKHKDKPVIVVDGSGMQCQEPANALTKAGFAQVFVLKEGVAGWAGENLPLVRGK [P0AG27],10.9 ± 1.4,6.47 ± 0.095,,5.92 ± 0.38,6.89 ± 0.76,6.06 ± 0.078,5.77 ± 1,5.7 ± 0.28,3.71 ± 0.18,5.96 ± 0.49,,
MQENQQITKKEQYNLNKLQKRLRRNVGEAIADFNMIEEGDRIMVCLSGGKDSYTMLEILRNLQQSAPINFSLVAVNLDQKQPGFPEHVLPEYLEKLGVEYKIVEENTYGIVKEKIPEGKTTCSLCSRLRRGILYRTATELGATKIALGHHRDDILQTLFLNMFYGGKMKGMPPKLMSDDGKHIVIRPLAYCREKDIQRFADAKAFPIIPCNLCGSQPNLQRQVIADMLRDWDKRYPGRIETMFSAMQNVVPSHLCDTNLFDFKGITHGSEVVNGGDLAFDREEIPLQPACWQPEEDENQLDELRLNVVEVK,2.85 ± 0.35,2.23 ± 0.24,4.26 ± 0.73,5.11 ± 0.8,3.63 ± 0.23,0.983 ± 0.28,1.44,1.0485 ± 0.00067,1.63 ± 0.051,1.26,2.26 ± 0.035,1.58 ± 0.57
MQERHTEQDYRALLIADTPIIDVRAPIEFEHGAMPAAINLPLMNNDERAAVGTCYKQQGSDAALALGHKLVAGEIRQQRMDAWRAACLQNPQGILCCARGGQRSHIVQSWLHAAGIDYPLVEGGYKALRQTAIQATIELAQKPIVLIGGCTGSGKTLLVQQQPNGVDLEGLARHRGSAFGRTLQPQLSQASFENLLAAEMLKTDARQNLRLWVLEDESRMIGSNHLPECLRERMTQAAIAVVEDPFEIRLERLNEEYFLRMHHDFTHAYGDEQGWQEYCEYLHHGLSAIKRRLGLQRYNELAARLDAALTTQLTTGSTDGHLAWLVPLLEEYYDPMYRYQLEKKAEKVVFRGEWAEVAEWVKAR,10.2 ± 1.6,5.64 ± 0.47,,4.83 ± 0.89,4.43 ± 0.057,4.35 ± 0.77,4.417 ± 0.0075,3.75 ± 0.5,3.16 ± 0.1,4.54 ± 0.24,5.87 ± 0.98,7.414 ± 0.067
MQESIQLVIDSLPFLLKGAGYTLQLSIGGMFFGLLLGFILALMRLSPIWPVRWLARFYISIFRGTPLIAQLFMIYYGLPQFGIELDPIPSAMIGLSLNTAAYAAETLRAAISSIDKGQWEAAASIGMTPWQTMRRAILPQAARVALPPLSNSFISLVKDTSLAATIQVPELFRQAQLITSRTLEVFTMYLAASLIYWIMATVLSTLQNHFENQLNRQEREPK [P0AFT2],15.7 ± 0.28,6 ± 0.41,11.9 ± 0.19,,7.13,7.23,,,3.14,6.07 ± 0.14,5.37 ± 0.3,11.2 ± 4.2
MQEYTNHSDTTFALRNISFRVPGRTLLHPLSLTFPAGKVTGLIGHNGSGKSTLLKMLGRHQPPSEGEILLDAQPLESWSSKAFARKVAYLPQQLPPAEGMTVRELVAIGRYPWHGALGRFGAADREKVEEAISLVGLKPLAHRLVDSLSGGERQRAWIAMLVAQDSRCLLLDEPTSALDIAHQVDVLSLVHRLSQERGLTVIAVLHDINMAARYCDYLVALRGGEMIAQGTPAEIMRGETLEMIYGIPMGILPHPAGAAPVSFVY,11.4,,12.9 ± 3,5.18,5.55,,,5.19 ± 0.12,2.65 ± 0.19,6.03 ± 0.81,6.7,10.7
MQFDWSAIWPAIPLLIEGAKMTLWISVLGLAGGLVIGLLAGFARTFGGWIANHVALVFIEVIRGTPIVVQVMFIYFALPMAFNDLRIDPFTAAVVTIMINSGAYIAEITRGAVLSIHKGFREAGLALGLSRWETIRYVILPLALRRMLPPLGNQWIISIKDTSLFIVIGVAELTRQGQEIIAGNFRALEIWSAVAVFYLIITLVLSFILRRLERRMKIL [P0AEQ6],,,13 ± 0.43,7.5 ± 0.32,5.86 ± 0.24,6.66 ± 0.23,5.82 ± 0.19,6.3 ± 1.3,3.216 ± 0.017,6.75 ± 0.56,6.15 ± 0.25,11.4 ± 4.3
MQFLNMFFFDIYPYIAGAVFLIGSWLRYDYGQYTWRAASSQMLDRKGMNLASNLFHIGILGIFVGHFFGMLTPHWMYEAWLPIEVKQKMAMFAGGASGVLCLIGGVLLLKRRLFSPRVRATTTGADILILSLLVIQCALGLLTIPFSAQHMDGSEMMKLVGWAQSVVTFHGGASQHLDGVAFIFRLHLVLGMTLFLLFPFSRLIHIWSVPVEYLTRKYQLVRARH,,,,,,,,,,,,> 16
MQFSKMHGLGNDFMVVDAVTQNVFFSPELIRRLADRHLGVGFDQLLVVEPPYDPELDFHYRIFNADGSEVAQCGNGARCFARFVRLKGLTNKRDIRVSTANGRMVLTVTDDDLVRVNMGEPNFEPSAVPFRANKAEKTYIMRAAEQTILCGVVSMGNPHCVIQVDDVDTAAVETLGPVLESHERFPERANIGFMQVVKREHIRLRVYERGAGETQACGSGACAAVAVGIQQGLLAEEVRVELPGGRLDIAWKGPGHPLYMTGPAVHVYDGFIHL [P0A6K1],9.56 ± 0.77,5.42 ± 0.38,11.859 ± 0.004,6.36 ± 1.1,6.48 ± 2.1,5.87 ± 0.47,5.47 ± 0.1,5.32 ± 0.55,3.44 ± 0.073,5.53 ± 0.74,5.92 ± 0.45,9.83 ± 0.98
